Patent publication US20030199036

Target: ubiquitin (in vitro thiol-ubiquitination experiment, source not stated)

B1: human pub2 (protein)
chain: MERPYTFKDFLLRPRSHKSRVKGFLRLKMAYMPKNGGQDEENSDQRDDMEHGWEVVDSNDSASQHQEELPPPPLPPGWEEKVDNLGRTYYVNHNNRTTQWHRPSLMDVSSESDNNIRQINQEAAHRRFRSRRHISEDLEPEPSEGGDVPEPWETISEEVNIAGDSLGLALPPPPVSPGSRTSPQELSEELSRRLQITPDSNGEQFSSLIQREPSSRLRSCSVTDAVAEQGHLPPPSVAYVHTTPGLPSGWEERKDAKGRTYYVNHNNRTTTWTRPIMQLAEDGASGSATNSNNHLIEPQIRRPRSLSSPTVTLSAPLEGAKDSPVRRAVKDTLSNPQSPQPSPYNSPKPQHKVTQSFLPPGWEMRIAPNGRPFFIDHNTKTTTWEDPRLKFPVHMRSKTSLNPNDLGPLPPGWEERIHLDGRTFYIDHNSKITQWEDPRLQNPAITGPAVPYSREFKQKYDYFRKKLKKPADIPNRFEMKLHRNNIFEESYRRIMSVKRPDVLKARLWIEFESEKGLDYGGVAREWFFLLSKEMFNPYYGLFEYSATDNYTLQINPNSGLCNEDHLSYFTFIGRVAGLAVFHGKLLDGFFIRPFYKMMLGKQITLNDMESVDSEYYNSLKWILENDPTELDLMFCIDEENFGQTYQVDLKPNGSEIMVTNENKREYIDLVIQWRFVNRVQKQMNAFLEGFTELLPIDLIKIFDENELELLMCGLGDVDVNDWRQHSIYKNGYCPNHPVIQWFWKAVLLMDAEKRIRLLQFVTGTSRVPMNGFAELYGSNGPQLFTIEQWGSPEKLPRAHTCFNRLDLPPYETFEDLREKLLMAVENAQGFEGVD
B1 was tested, and the thiol-ubiquitination in vitro was “both h-pub1 and h-pub2 can become thiol-ubiquitinated in vitro”.
